According to patent US20250019440A1 (Zymeworks, published 2025):

T1: Mouse CLDN18 A2.1 (mouse, UniProt P56857 10-264)
T1 construct: On transfected HEK293-6E cells; also called Mouse CLDN18 2.1; mouse CLDN18.2 ortholog
T1 chain: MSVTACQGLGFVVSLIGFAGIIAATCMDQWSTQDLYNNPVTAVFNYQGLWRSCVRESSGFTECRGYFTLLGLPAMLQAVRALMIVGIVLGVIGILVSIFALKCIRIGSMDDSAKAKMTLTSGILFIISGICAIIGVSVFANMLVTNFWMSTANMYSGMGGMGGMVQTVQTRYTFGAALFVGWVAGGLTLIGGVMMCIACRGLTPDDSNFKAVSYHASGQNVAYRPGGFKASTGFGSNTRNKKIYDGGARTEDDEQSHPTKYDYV

T2: Cynomolgus monkey CLDN18 (cynomolgus monkey)
T2 construct: On transfected HEK293-6E cells; also called Cyno CLDN18; cynomologus monkey CLDN18.2 ortholog
T2 chain: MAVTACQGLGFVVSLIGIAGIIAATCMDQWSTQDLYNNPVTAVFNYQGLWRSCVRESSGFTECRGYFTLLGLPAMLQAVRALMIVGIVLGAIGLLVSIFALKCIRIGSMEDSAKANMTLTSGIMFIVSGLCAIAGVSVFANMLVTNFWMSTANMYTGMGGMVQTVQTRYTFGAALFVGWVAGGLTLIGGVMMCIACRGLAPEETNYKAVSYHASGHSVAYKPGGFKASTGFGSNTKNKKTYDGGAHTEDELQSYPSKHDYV


Experiments:
PD-L1 on cells = PD-L1 on cells (UniProt Q9NZQ7 19-290, limits assumed); assay: cell-based or functional assay
Human CLDN18.1 = target: T3, Human CLDN18.1 (human, UniProt P56856 1-261); assay: FACS, Expi293F supernatants on transfected HEK293-6E cells
T3 construct: On transfected HEK293-6E cells

Mouse CLDN18 A2.1 = target: T1, Mouse CLDN18 A2.1; assay: FACS on transfected HEK293-6E cells, 4 parameter logistic fit
Human CLDN18.2 = target: T4, Human CLDN18.2 (human); assay: as above
T4 construct: On transfected HEK293-6E cells; also called Claudin18.2

Cynomolgus monkey CLDN18 = target: T2, Cynomolgus monkey CLDN18; assay: as above

T3 sequence (P56856 whole entry): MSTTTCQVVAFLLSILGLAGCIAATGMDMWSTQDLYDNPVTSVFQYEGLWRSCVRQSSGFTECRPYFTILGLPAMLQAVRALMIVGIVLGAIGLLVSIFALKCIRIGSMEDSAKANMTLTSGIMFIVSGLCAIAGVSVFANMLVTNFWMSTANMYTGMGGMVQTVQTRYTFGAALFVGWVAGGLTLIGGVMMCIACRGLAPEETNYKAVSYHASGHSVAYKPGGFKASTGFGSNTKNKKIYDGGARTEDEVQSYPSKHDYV
PD-L1 on cells, sequence (Q9NZQ7 19-290 limits assumed): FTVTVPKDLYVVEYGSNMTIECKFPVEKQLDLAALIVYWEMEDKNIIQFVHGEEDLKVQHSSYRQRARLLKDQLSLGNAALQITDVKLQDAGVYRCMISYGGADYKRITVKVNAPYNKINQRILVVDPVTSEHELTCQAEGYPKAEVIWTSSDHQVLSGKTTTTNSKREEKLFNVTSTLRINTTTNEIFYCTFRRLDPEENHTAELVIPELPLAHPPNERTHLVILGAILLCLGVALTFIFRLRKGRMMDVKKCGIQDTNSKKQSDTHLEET

Binder	EC50 (read off the curve); hybrid PD-1/PD-L1 reporter gene assay, delta RLU, PD-1+ Jurkat T cells with SNU-620 cells, top right graph; composite signal of CD3 engagement and PD-1:PD-L1 blockade (PD-L1 on cells) [pM]	EC50 (read off the curve); hybrid PD-1/PD-L1 reporter gene assay, delta RLU, PD-1+ Jurkat T cells with SNU-620 cells, bottom graph; composite signal of CD3 engagement and PD-1:PD-L1 blockade (PD-L1 on cells) [pM]	binding result (Human CLDN18.1)	Bmax (Mouse CLDN18 A2.1)	EC50 (Mouse CLDN18 A2.1) [nM]	Bmax (Human CLDN18.2)	EC50 (Human CLDN18.2) [nM]	Bmax (Cynomolgus monkey CLDN18)	EC50 (Cynomolgus monkey CLDN18) [nM]
v39000 - A132L (other) heavy chain 1 (H1): EVQLVESGGGLVQPGGSLRLSCAASGVTFNYYGMSWIRQAPGKGLEWVASITSSGGRIYYPDSVKGRFTISRENTQKTLYLQMNSLRAEDTAVYYCTLDGRDGWVAYWGQGTLVTVSSASTKGPSVFPLAPSSKSTSGGTAALGCLVKDYFPEPVTVSWNSGALTSGVHTFPAVLQSSGLYSLSSVVTVPSSSLGTQTYICNVNHKPSNTKVDKKVEPKSCDKTHTCPPCPAPEAAGGPSVFLFPPKPKDTLMISRTPEVTCVVVSVSHEDPEVKFNWYVDGVEVHNAKTKPREEQYNSTYRVVSVLTVLHQDWLNGKEYKCKVSNKALPAPIEKTISKAKGQPREPQVYVYPPSRDELTKNQVSLTCLVKGFYPSDIAVEWESNGQPENNYKTTPPVLDSDGSFALVSKLTVDKSRWQQGNVFSCSVMHEALHNHYTQKSLSLSPGGGGGSGQVQLVESGGGLVQPGGSLRLSCSVSGIDLSSNPMIWVRQAPGKGLQYIGIIDTDGSTYYADWAKGRFTISKDSTTVYLQINSPRAEDTAVYYCARRLHGSSNGYYDDLWGQGTLVTVSSGGGGSGGGGSGGGGSGGGGSDGQMTQSPSSVSASVGDRVTITCQASQSIYSYLSWYQQKPGQRPKLLIYKASTLASGVPSRFSGSGSGTDFTLTISSVQPEDFATYYCQQGYTVTNVDKNTFGGGTKVEIK light chain (L1): NFMLTQPHSVSESPGKTVTISCKRNTGNIGSNYVNWYQQHEGSSPTTIIYRNDKRPDGVSDRFSGSIDRSSKSASLTISNLKTEDEADYFCQSYSSGFIFGGGTKLTVLGQPKAAPSVTLFPPSSEELQANKATLVCLISDFYPGAVTVAWKADSSPVKAGVETTTPSKQSNNKYAASSYLSLTPEQWKSHRSYSCQVTHEGSTVEKTVAPTECS heavy chain 2 (H2): NPPTFSPALLVVTEGDNATFTCSFSNTSESFVLNWYRMSPSNQTDKLAAFPEDRSQPGQDARFRVTQLPNGRDFHMSVVRARRNDSGTYLCGAISLAPKLQIKESLRAELRVTEGGGGSGQVQLVESGGGLVQPGGSLRLSCSVSGIDLSSNPMIWVRQAPGKGLQYIGIIDTDGSTYYADWAKGRFTISKDSTTVYLQINSPRAEDTAVYYCARRLHGSSNGYYDDLWGQGTLVTVSSGGGGSGGGGSGGGGSGGGGSDGQMTQSPSSVSASVGDRVTITCQASQSIYSYLSWYQQKPGQRPKLLIYKASTLASGVPSRFSGSGSGTDFTLTISSVQPEDFATYYCQQGYTVTNVDKNTFGGGTKVEIKAAEPKSSDKTHTCPPCPAPEAAGGPSVFLFPPKPKDTLMISRTPEVTCVVVSVSHEDPEVKFNWYVDGVEVHNAKTKPREEQYNSTYRVVSVLTVLHQDWLNGKEYKCKVSNKALPAPIEKTISKAKGQPREPQVYVLPPSRDELTKNQVSLLCLVKGFYPSDIAVEWESNGQPENNYLTWPPVLDSDGSFFLYSKLTVDKSRWQQGNVFSCSVMHEALHNHYTQKSLSLSPG	~40								
v39004 - A132L (other) heavy chain 1 (H1): EVQLVESGGGLVQPGGSLRLSCAASGVTFNYYGMSWIRQAPGKGLEWVASITSSGGRIYYPDSVKGRFTISRENTQKTLYLQMNSLRAEDTAVYYCTLDGRDGWVAYWGQGTLVTVSSASTKGPSVFPLAPSSKSTSGGTAALGCLVKDYFPEPVTVSWNSGALTSGVHTFPAVLQSSGLYSLSSVVTVPSSSLGTQTYICNVNHKPSNTKVDKKVEPKSCDKTHTCPPCPAPEAAGGPSVFLFPPKPKDTLMISRTPEVTCVVVSVSHEDPEVKFNWYVDGVEVHNAKTKPREEQYNSTYRVVSVLTVLHQDWLNGKEYKCKVSNKALPAPIEKTISKAKGQPREPQVYVYPPSRDELTKNQVSLTCLVKGFYPSDIAVEWESNGQPENNYKTTPPVLDSDGSFALVSKLTVDKSRWQQGNVFSCSVMHEALHNHYTQKSLSLSPGGGGGSGQVQLVESGGGLVQPGGSLRLSCSVSGIDLSSNPMIWVRQAPGKGLQYIGIIDTDGSTYYADWAKGRFTISKDSTTVYLQINSPRAEDTAVYYCARRLHGSSNGYYDDLWGQGTLVTVSSGGGGSGGGGSGGGGSGGGGSDGQMTQSPSSVSASVGDRVTITCQASQSIYSYLSWYQQKPGQRPKLLIYKASTLASGVPSRFSGSGSGTDFTLTISSVQPEDFATYYCQQGYTVTNVDKNTFGGGTKVEIK light chain (L1): NFMLTQPHSVSESPGKTVTISCKRNTGNIGSNYVNWYQQHEGSSPTTIIYRNDKRPDGVSDRFSGSIDRSSKSASLTISNLKTEDEADYFCQSYSSGFIFGGGTKLTVLGQPKAAPSVTLFPPSSEELQANKATLVCLISDFYPGAVTVAWKADSSPVKAGVETTTPSKQSNNKYAASSYLSLTPEQWKSHRSYSCQVTHEGSTVEKTVAPTECS heavy chain 2 (H2): QVQLVESGGGLVQPGGSLRLSCSVSGIDLSSNPMIWVRQAPGKGLQYIGIIDTDGSTYYADWAKGRFTISKDSTTVYLQINSPRAEDTAVYYCARRLHGSSNGYYDDLWGQGTLVTVSSGGGGSGGGGSGGGGSGGGGSDGQMTQSPSSVSASVGDRVTITCQASQSIYSYLSWYQQKPGQRPKLLIYKASTLASGVPSRFSGSGSGTDFTLTISSVQPEDFATYYCQQGYTVTNVDKNTFGGGTKVEIKAAEPKSSDKTHTCPPCPAPEAAGGPSVFLFPPKPKDTLMISRTPEVTCVVVSVSHEDPEVKFNWYVDGVEVHNAKTKPREEQYNSTYRVVSVLTVLHQDWLNGKEYKCKVSNKALPAPIEKTISKAKGQPREPQVYVLPPSRDELTKNQVSLLCLVKGFYPSDIAVEWESNGQPENNYLTWPPVLDSDGSFFLYSKLTVDKSRWQQGNVFSCSVMHEALHNHYTQKSLSLSPGGGGGSGDRPWNPPTFSPALLVVTEGDNATFTCSFSNTSESFVLNWYRMSPSNQTDKLAAFPEDRSQPGQDARFRVTQLPNGRDFHMSVVRARRNDSGTYLCGAISLAPKLQIKESLRAELRVTE		~40							
v37407 (antibody, human IgG1, V domains shown, Humanized, recombinant human IgG1-based monoclonal antibody; also called H4-L4) VH: QVQLVESGGGLVQPGGSLRLSCSVSGIDLSSNPMIWVRQAPGKGLEYIGIIDTDGSTYYADWAKGRFTISKDSTTVYLQMNSLRAEDTAVYYCARRLHGSSNGYYDDLWGQGTLVTVSS VL: DGQMTQSPSSVSASVGDRVTITCQASQSIYSYLSWYQQKPGQRPKLLIYKASTLASGVPSRFSGSGSGTDFTLTISSVQPEDFATYYCQQGYTVTNVDKNTFGGGTKVEIK			no binding	1540	0.8	2040	1.54	1410	0.24
v37409 (antibody, human IgG1, V domains shown, Humanized, recombinant human IgG1-based monoclonal antibody; also called H2-L4) VH: QVQLVESGGGLVQPGGSLRLSCSVSGIDLSSNPMIWVRQAPGKGLEYIGIIDTDGSTYYADWAKGRFTISKDSSKNTVYLQMNSLRAEDTAVYYCARRLHGSSNGYYDDLWGQGTLVTVSS VL: DGQMTQSPSSVSASVGDRVTITCQASQSIYSYLSWYQQKPGQRPKLLIYKASTLASGVPSRFSGSGSGTDFTLTISSVQPEDFATYYCQQGYTVTNVDKNTFGGGTKVEIK			no binding	1530	0.89	1960	1.22	1500	0.35
v37408 (antibody, human IgG1, V domains shown, Humanized, recombinant human IgG1-based monoclonal antibody; also called H4-L2) VH: QVQLVESGGGLVQPGGSLRLSCSVSGIDLSSNPMIWVRQAPGKGLEYIGIIDTDGSTYYADWAKGRFTISKDSTTVYLQMNSLRAEDTAVYYCARRLHGSSNGYYDDLWGQGTLVTVSS VL: DGQMTQSPSSVSASVGDRVTITCQASQSIYSYLSWYQQKPGQRPKLLIYKASTLASGVPSRFSGSGSGTDFTLTISSVQPEDAATYYCQQGYTVTNVDKNTFGGGTKVEVK			no binding	1920	2.65	2190	1.87	1520	0.36
v37410 (antibody, human IgG1, V domains shown, Humanized, recombinant human IgG1-based monoclonal antibody; also called H3-L4) VH: QVQLVESGGGLVQPGGSLRLSCSVSGIDLSSNPMIWVRQAPGKGLQYIGIIDTDGSTYYADWAKGRFTISKDSSKNTVYLQMNSLRAEDTAVYYCARRLHGSSNGYYDDLWGQGTLVTVSS VL: DGQMTQSPSSVSASVGDRVTITCQASQSIYSYLSWYQQKPGQRPKLLIYKASTLASGVPSRFSGSGSGTDFTLTISSVQPEDFATYYCQQGYTVTNVDKNTFGGGTKVEIK			no binding	1690	1.02	1910	0.97	1500	0.31
v37411 (antibody, human IgG1, V domains shown, Humanized, recombinant human IgG1-based monoclonal antibody; also called H5-L4) VH: QVQLVESGGGLVQPGGSLRLSCSVSGIDLSSNPMIWVRQAPGKGLQYIGIIDTDGSTYYADWAKGRFTISKDSTTVYLQINSPRAEDTAVYYCARRLHGSSNGYYDDLWGQGTLVTVSS VL: DGQMTQSPSSVSASVGDRVTITCQASQSIYSYLSWYQQKPGQRPKLLIYKASTLASGVPSRFSGSGSGTDFTLTISSVQPEDFATYYCQQGYTVTNVDKNTFGGGTKVEIK			no binding	1790	1.03	2170	1.05	1730	0.37
